Data taken from paper PMC3536697.
“And” between values parts separate entries of the source, which are not always exact repeats. Identical values can stand only once.

Tests used:
[1] = tested on: CaStn1N;CaTen1 (Candida albicans;Candida albicans); test: UV crosslinking; settings: reference; normalized to Ten1 adduct; single Iodo-dU; EMSA: 10 mM Tris-HCl pH 8.0, 2 mM MgCl2, 1 mM spermidine, 1 mM DTT, 10% glycerol, 22 C; UV crosslinking: 50 mM Hepes-NaOH pH 7.5, 10% glycerol, 30 mM …
[2] = tested on: CaStn1N K98E/K170E;CaTen1 (Candida albicans;Candida albicans); test: UV crosslinking; settings: single Iodo-dU; EMSA: 10 mM Tris-HCl pH 8.0, 2 mM MgCl2, 1 mM spermidine, 1 mM DTT, 10% glycerol, 22 C; UV crosslinking: 50 mM Hepes-NaOH pH 7.5, 10% glycerol, 30 mM …
Cdc13 (Candida glabrata) = test: competition; settings: labeled CgTELX1 7.5 nM, Cdc13 6 nM; EMSA: 10 mM Tris-HCl pH 8.0, 2 mM MgCl2, 1 mM spermidine, 1 mM DTT, 10% glycerol, 22 C; UV crosslinking: 50 mM Hepes-NaOH pH 7.5, 10% glycerol, 30 mM …
[3] = target: Cdc13 (CST subunit);Stn1;Ten1 (Candida glabrata;Candida glabrata;Candida glabrata) (UniProt Q6FM89); test: competition; settings: labeled CgTELX1 7.5 nM, CST 10 nM; EMSA: 10 mM Tris-HCl pH 8.0, 2 mM MgCl2, 1 mM spermidine, 1 mM DTT, 10% glycerol, 22 C; UV crosslinking: 50 mM Hepes-NaOH pH 7.5, 10% glycerol, 30 mM …
[4] = target: SUMO-CgCdc13-FLAG fusion protein (Candida glabrata Cdc13) (Candida glabrata); test: co-IP; extract of E. coli co-expressing SUMO-Cdc13-FG and HIS6-SUMO-Stn1 (CS) on M2 (anti-FLAG) resin; Coomassie and Western (anti-FLAG, anti-HIS6)
[5] = target: SUMO-CgCdc13-FLAG fusion protein (Candida glabrata Cdc13) (Candida glabrata); test: Coomassie staining intensities of the subunits in SDS-PAGE against BSA standards; purified CST complex (M2 fractions); intensities assumed proportional to molecular weights
[6] = target: SUMO-CgCdc13-FLAG fusion protein (Candida glabrata Cdc13) (Candida glabrata); test: Western analysis of serial dilutions with anti-SUMO antibodies; serial three fold dilutions of the purified CST complex; SUMO tag present in both the Cdc13 and Stn1 fusions
[7] = target: SUMO-CgCdc13-FLAG fusion protein (Candida glabrata Cdc13) (Candida glabrata); test: co-sedimentation; purified CST complex on a 15-30% glycerol gradient; fractions by Western with anti-SUMO (Cdc13, Stn1) and anti-GST (Ten1); 500 kDa fraction also in serial two fold dilutions with anti-SUMO

With C. albicans telomere IdU oligo the binding signal (fraction of WT Stn1N crosslinking) [1] was 1 and the binding signal (fold reduction vs WT) [2] was 3.

“CGGTGTAAGGATGCACTTGAAACTCGGTGTAAGGATGCACTTGAAACT [LeTELX2]” showed a binding signal (fold more competitor than CgTELX1) (Cdc13 (Candida glabrata)) greater than 200 and a binding signal (fold more competitor than CgTELX1) [3] greater than 200.

In the case of “HIS6-SUMO-CgStn1 fusion protein (Candida glabrata Stn1) (natural protein)”, the stoichiometry N (Stn1 per Cdc13) [4] is reported as 2 to 3, the stoichiometry N (Stn1 per Cdc13) [5] is reported as 2 and 3 and 2.5 and the stoichiometry N (Stn1 per Cdc13) [6] is reported as 2.5. For the same substance, the stoichiometry N (Stn1 per Cdc13) [7] was 2.5.

Work on “SUMO-CgCdc13-FLAG fusion protein (Candida glabrata Cdc13) (natural protein)” yielded a stoichiometry N [7] of 2.

For “TCTTTAGGGAGGTACTGATGTTCTTTAGGGAGGTACTGATGT [ClTELX2]”, the binding signal (fold more competitor than CgTELX1) (Cdc13 (Candida glabrata)) was 20 and the binding signal (fold more competitor than CgTELX1) [3] was 20.

For “TTAGGATCCATGAAAACTGAAGAAGGTAAACTGGTA [R1]”, the binding signal (fold more competitor than CgTELX1) (Cdc13 (Candida glabrata)) was greater than 200 and the binding signal (fold more competitor than CgTELX1) [3] was greater than 200.
